# Test results as given in publication PMC10786891, “Massively parallel profiling of RNA-targeting CRISPR-Cas13d”.
# Residue numbers refer to the chain shown, from its start. Names and notes keep the numbering of the source.
# T1: EsCas13d, nuclease-dead (Eubacterium siraeum, UniProt B0MS50, R295A;H300A;R849A;H854A)
# T1 sequence: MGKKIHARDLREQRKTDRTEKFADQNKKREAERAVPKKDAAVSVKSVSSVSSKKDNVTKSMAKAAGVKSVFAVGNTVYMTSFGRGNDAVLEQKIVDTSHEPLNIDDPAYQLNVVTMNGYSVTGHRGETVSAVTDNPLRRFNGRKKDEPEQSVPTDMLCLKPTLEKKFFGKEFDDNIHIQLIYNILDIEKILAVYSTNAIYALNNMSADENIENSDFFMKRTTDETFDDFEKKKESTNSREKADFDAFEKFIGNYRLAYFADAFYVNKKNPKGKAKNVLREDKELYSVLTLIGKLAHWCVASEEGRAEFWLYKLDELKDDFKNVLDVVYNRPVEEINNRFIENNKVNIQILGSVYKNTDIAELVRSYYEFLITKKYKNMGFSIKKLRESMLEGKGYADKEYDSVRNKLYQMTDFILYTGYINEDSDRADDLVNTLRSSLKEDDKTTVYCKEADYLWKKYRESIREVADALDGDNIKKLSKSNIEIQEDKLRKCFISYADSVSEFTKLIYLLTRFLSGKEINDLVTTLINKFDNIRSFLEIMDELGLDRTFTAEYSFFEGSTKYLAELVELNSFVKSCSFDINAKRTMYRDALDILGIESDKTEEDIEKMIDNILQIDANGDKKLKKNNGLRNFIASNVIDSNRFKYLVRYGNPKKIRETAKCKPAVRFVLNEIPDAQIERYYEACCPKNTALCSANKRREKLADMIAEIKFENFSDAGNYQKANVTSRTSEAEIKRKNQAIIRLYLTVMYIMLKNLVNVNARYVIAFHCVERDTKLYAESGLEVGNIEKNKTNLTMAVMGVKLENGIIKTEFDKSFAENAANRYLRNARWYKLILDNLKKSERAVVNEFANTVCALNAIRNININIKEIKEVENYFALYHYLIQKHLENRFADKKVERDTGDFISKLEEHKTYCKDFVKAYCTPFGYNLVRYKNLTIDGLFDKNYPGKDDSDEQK
# B1: target 1 insU 3' of 22,insC 3' of 13 (mixed)
# RNA 1: CACCCGUGCAAAAAUGCAGGGGUCUAAAACUGAGCGGAUAACCUCUCUAUGG
# RNA 2: GGGAAUGGAUCCACAUCUACGAAUUCGUACUCAUAGAGAGCGUUAUCCGCUCACCGAGAUCGGAAGAGCACACGU
# B2: target 1 U8G,U19G (mixed)
# RNA 1: B1 RNA 1
# RNA 2: GGGAAUGGAUCCACAUCUACGAAUUCGUACCAGAGAGAGGUUAGCCGCUCACCGAGAUCGGAAGAGCACACGU
# B3: target 1 insU 3' of 4,insG 3' of 4 (mixed)
# RNA 1: B1 RNA 1
# RNA 2: GGGAAUGGAUCCACAUCUACGAAUUCGUACCAUAGAGAGGUUAUCCGCUGUCACCGAGAUCGGAAGAGCACACGU
# B4: target 1 del7,del20 (mixed)
# RNA 1: B1 RNA 1
# RNA 2: GGGAAUGGAUCCACAUCUACGAAUUCGUACCUAGAGAGGUUAUCGCUCACCGAGAUCGGAAGAGCACACGU
# B5: target 1 A9U,A20C (mixed)
# RNA 1: B1 RNA 1
# RNA 2: B2 RNA 2 with A32C, G33U, A43U, G44U
# B6: target 1 insU 3' of 15,insA 3' of 5 (mixed)
# RNA 1: B1 RNA 1
# RNA 2: GGGAAUGGAUCCACAUCUACGAAUUCGUACCAUAGAGUAGGUUAUCCGACUCACCGAGAUCGGAAGAGCACACGU
# B7: target 1 insG 3' of 21,insG 3' of 2 (mixed)
# RNA 1: B1 RNA 1
# RNA 2: GGGAAUGGAUCCACAUCUACGAAUUCGUACCGAUAGAGAGGUUAUCCGCUCGACCGAGAUCGGAAGAGCACACGU
# B8: target 1 U3G,U11A (mixed)
# RNA 1: B1 RNA 1
# RNA 2: B2 RNA 2 with G33U, U41A, G44U, U49G
# B9: target 1 insU 3' of 22,insU 3' of 2 (mixed)
# RNA 1: B1 RNA 1
# RNA 2: B7 RNA 2 with C31U, G32C, G52U
# B10: target 1 insG 3' of 22,insG 3' of 14 (mixed)
# RNA 1: B1 RNA 1
# RNA 2: B1 RNA 2 with U31G, C41G
# B11: target 1 insA 3' of 21,insG 3' of 10 (mixed)
# RNA 1: B1 RNA 1
# RNA 2: B1 RNA 2 with U31C, C32A, C41G, G42U, U44G
# B12: target 1 del8,del15 (mixed)
# RNA 1: B1 RNA 1
# RNA 2: B4 RNA 2 with U32A, A33U, G34A, A35G, G36A, U43C
# B13: target 1 insA 3' of 11,insC 3' of 10 (mixed)
# RNA 1: B1 RNA 1
# RNA 2: B3 RNA 2 with U42A, A43U, U44C, C45A, C46U, G47C, U49G, G50C
# B14: target 1 U8A,G17A (mixed)
# RNA 1: B1 RNA 1
# RNA 2: B2 RNA 2 with G33U, G35A, G44A
# B15: target 1 C2G,U10A (mixed)
# RNA 1: B1 RNA 1
# RNA 2: B2 RNA 2 with G33U, U42A, G44U, C50G
# B16: target 1 C7A,C22A (mixed)
# RNA 1: B1 RNA 1
# RNA 2: B2 RNA 2 with C30A, G33U, G44U, C45A
# B17: target 1 C6G,U11A (mixed)
# RNA 1: B1 RNA 1
# RNA 2: B2 RNA 2 with G33U, U41A, G44U, C46G
# B18: target 1 U3G,C21U (mixed)
# RNA 1: B1 RNA 1
# RNA 2: B2 RNA 2 with C31U, G33U, G44U, U49G
# B19: target 1 insC 3' of 10,insU 3' of 7 (mixed)
# RNA 1: B1 RNA 1
# RNA 2: B3 RNA 2 with A43C, U44A, C45U, G47U, U49G, G50C
# B20: target 1 insA 3' of 10,insU 3' of 4 (mixed)
# RNA 1: B1 RNA 1
# RNA 2: B3 RNA 2 with U44A, C45U, G47C, C48G, U49C, G50U
# B21: target 1 del13,del16 (mixed)
# RNA 1: B1 RNA 1
# RNA 2: B4 RNA 2 with U32A, A33U, G34A, A35G, G39U, U41A, A42U, U43C
# B22: target 1 G12U,A16U (mixed)
# RNA 1: B1 RNA 1
# RNA 2: B2 RNA 2 with G33U, A36U, G40U, G44U
# B23: target 1 insG 3' of 19,insG 3' of 8 (mixed)
# RNA 1: B1 RNA 1
# RNA 2: B6 RNA 2 with A34G, G35A, A36G, G37A, U38G, C46G, G48C, A49G
# B24: target 1 A1U,U3A (mixed)
# RNA 1: B1 RNA 1
# RNA 2: B2 RNA 2 with G33U, G44U, U49A, A51U
# B25: target 1 C6G,A9G (mixed)
# RNA 1: B1 RNA 1
# RNA 2: B2 RNA 2 with G33U, A43G, G44U, C46G
# B26: target 1 insU 3' of 15,insG 3' of 8 (mixed)
# RNA 1: B1 RNA 1
# RNA 2: B6 RNA 2 with C46G, G48C, A49G
# B27: target 1 U8G,A20C (mixed)
# RNA 1: B1 RNA 1
# RNA 2: B2 RNA 2 with A32C, G33U
# B28: target 1 C7U,G15A (mixed)
# RNA 1: B1 RNA 1
# RNA 2: B2 RNA 2 with G33U, G37A, G44U, C45U
# B29: target 1 insG 3' of 8,insA 3' of 4 (mixed)
# RNA 1: B1 RNA 1
# RNA 2: B3 RNA 2 with C45G, G47C, C48G, U49C, G50A
# B30: target 1 insA 3' of 22,insC 3' of 13 (mixed)
# RNA 1: B1 RNA 1
# RNA 2: B1 RNA 2 with U31A
# B31: target 1 insU 3' of 7,insG 3' of 3 (mixed)
# RNA 1: B1 RNA 1
# RNA 2: B3 RNA 2 with C46U, G47C, C48G, U49C, G50U, U51G
# B32: target 1 insU 3' of 21,insG 3' of 8 (mixed)
# RNA 1: B1 RNA 1
# RNA 2: B7 RNA 2 with G32U, C46G, G48C, C49G, U50C, C51U, G52C
# B33: target 1 insC 3' of 10,insA 3' of 8 (mixed)
# RNA 1: B1 RNA 1
# RNA 2: B3 RNA 2 with A43C, U44A, C45U, C46A, G47C, U49G, G50C
# Biological target: T1, EsCas13d, nuclease-dead
# Test: crRNA (strand 1, pre-loaded); Mg2+; 40 mM Tris-HCl pH 7.5, 150 mM NaCl, 6 mM MgCl2, 1 mM DTT, 0.1% Tween-20, 0.2 mg/ml BSA; 25 C; 10 min per concentration, then washed
# Conditions: tags: His6-TwinStrep-SUMO cleaved; N-terminal SNAP kept (SNAP-Surface 488); label: 3' end held by stalled T7 RNA polymerase
row,Binder,Kd
1,B1,88 ± 32 nM
2,B2,79 ± 15 nM
3,B3,8.9 ± 0.8 nM
4,B4,39 ± 4 nM
5,B5,~53 nM
6,B6,21.7 ± 2.1 nM
7,B7,61 ± 13 nM
8,B8,14.2 ± 1.3 nM
9,B9,35.9 ± 2.9 nM
10,B10,28.6 ± 3.5 nM
11,B11,59 ± 24 nM
12,B12,37.8 ± 3 nM
13,B13,14.6 ± 0.7 nM
14,B14,92 ± 17 nM
15,B15,12.7 ± 1.3 nM
16,B16,12.1 ± 0.5 nM
17,B17,25.4 ± 0.9 nM

row,Binder,Kd
1,B18,11 ± 1.2 nM
2,B19,19.2 ± 1.3 nM
3,B20,9.3 ± 0.6 nM
4,B21,94 ± 28 nM
5,B22,79 ± 18 nM
6,B23,58 ± 6 nM
7,B24,7.2 ± 0.6 nM
8,B25,10.6 ± 0.9 nM
9,B26,18.3 ± 1.7 nM
10,B27,91 ± 34 nM
11,B28,9.8 ± 0.6 nM
12,B29,12 ± 0.7 nM
13,B30,22 ± 1.3 nM
14,B31,5.45 ± 0.31 nM
15,B32,34.9 ± 3 nM
16,B33,18.8 ± 0.8 nM
